Here are results for 13 molecules from patent publication US20250186541A1, “DLL3 TARGETING PEPTIDES AND CONSTRUCTS THEREOF” (MARIANA ONCOLOGY INC., priority 2023, published 2025).

T1: Biotinylated human DLL3 (human, UniProt Q9NYJ7 27-492, biotinylated (site not stated))
T1 construct: also called Delta-like ligand 3; Delta Like Canonical Notch Ligand 3
T1 sequence (looked up): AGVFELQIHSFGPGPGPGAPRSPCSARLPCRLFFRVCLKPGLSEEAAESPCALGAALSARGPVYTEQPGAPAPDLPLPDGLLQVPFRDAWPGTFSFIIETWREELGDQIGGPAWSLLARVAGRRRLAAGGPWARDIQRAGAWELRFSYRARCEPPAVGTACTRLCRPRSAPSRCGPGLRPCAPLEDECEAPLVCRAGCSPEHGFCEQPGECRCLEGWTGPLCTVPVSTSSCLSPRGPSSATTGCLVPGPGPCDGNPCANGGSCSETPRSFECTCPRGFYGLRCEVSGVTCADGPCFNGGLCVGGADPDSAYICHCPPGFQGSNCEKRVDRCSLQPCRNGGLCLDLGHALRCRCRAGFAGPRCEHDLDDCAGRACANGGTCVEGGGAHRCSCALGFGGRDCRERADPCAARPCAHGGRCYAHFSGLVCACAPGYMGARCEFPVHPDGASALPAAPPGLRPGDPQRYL

T2: human DLL3 (Homo sapiens, UniProt Q9NYJ7)
T2 construct: biotin (biotinylated)
T2 sequence (Q9NYJ7 27-618): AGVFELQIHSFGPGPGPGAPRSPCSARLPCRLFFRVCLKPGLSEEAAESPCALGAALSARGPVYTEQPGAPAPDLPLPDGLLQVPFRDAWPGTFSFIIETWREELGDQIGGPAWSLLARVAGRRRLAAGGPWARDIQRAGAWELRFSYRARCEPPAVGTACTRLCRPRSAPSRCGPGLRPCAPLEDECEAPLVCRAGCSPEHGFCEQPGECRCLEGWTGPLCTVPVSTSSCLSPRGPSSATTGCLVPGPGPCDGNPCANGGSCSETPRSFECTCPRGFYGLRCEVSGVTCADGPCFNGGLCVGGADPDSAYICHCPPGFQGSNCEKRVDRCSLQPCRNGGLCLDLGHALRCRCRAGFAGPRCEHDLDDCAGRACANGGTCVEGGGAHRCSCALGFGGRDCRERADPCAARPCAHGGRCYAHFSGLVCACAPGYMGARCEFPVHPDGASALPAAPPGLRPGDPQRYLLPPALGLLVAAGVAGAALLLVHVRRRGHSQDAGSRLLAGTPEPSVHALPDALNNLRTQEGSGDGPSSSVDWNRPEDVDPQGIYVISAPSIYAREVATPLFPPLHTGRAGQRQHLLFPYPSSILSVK

B1: Cpd #24 (peptide)
peptide: Ac-MSDCWLAWNCPFD-NH2
modifications: disulfide 4-10
SMILES: CSCC[C@H](NC(C)=O)C(=O)N[C@@H](CO)C(=O)N[C@@H](CC(=O)O)C(=O)N[C@H]1CSSC[C@@H](C(=O)N2CCC[C@H]2C(=O)N[C@@H](Cc2ccccc2)C(=O)N[C@@H](CC(=O)O)C(N)=O)NC(=O)[C@H](CC(N)=O)NC(=O)[C@H](Cc2c[nH]c3ccccc23)NC(=O)[C@H](C)NC(=O)[C@H](CC(C)C)NC(=O)[C@H](Cc2c[nH]c3ccccc23)NC1=O
B2: Cpd #21 (peptide)
peptide: Ac-MSACWLQWNCPFD-NH2
modifications: disulfide 4-10
SMILES: CSCC[C@H](NC(C)=O)C(=O)N[C@@H](CO)C(=O)N[C@@H](C)C(=O)N[C@H]1CSSC[C@@H](C(=O)N2CCC[C@H]2C(=O)N[C@@H](Cc2ccccc2)C(=O)N[C@@H](CC(=O)O)C(N)=O)NC(=O)[C@H](CC(N)=O)NC(=O)[C@H](Cc2c[nH]c3ccccc23)NC(=O)[C@H](CCC(N)=O)NC(=O)[C@H](CC(C)C)NC(=O)[C@H](Cc2c[nH]c3ccccc23)NC1=O
B3: Cpd #9 (peptide)
peptide: Ac-M[dA]DCWLQWNCPFD-NH2
modifications: disulfide 4-10
SMILES: CSCC[C@H](NC(C)=O)C(=O)N[C@H](C)C(=O)N[C@@H](CC(=O)O)C(=O)N[C@H]1CSSC[C@@H](C(=O)N2CCC[C@H]2C(=O)N[C@@H](Cc2ccccc2)C(=O)N[C@@H](CC(=O)O)C(N)=O)NC(=O)[C@H](CC(N)=O)NC(=O)[C@H](Cc2c[nH]c3ccccc23)NC(=O)[C@H](CCC(N)=O)NC(=O)[C@H](CC(C)C)NC(=O)[C@H](Cc2c[nH]c3ccccc23)NC1=O
B4: Cpd #22 (peptide)
peptide: Ac-MSDCALQWNCPFD-NH2
modifications: disulfide 4-10
SMILES: CSCC[C@H](NC(C)=O)C(=O)N[C@@H](CO)C(=O)N[C@@H](CC(=O)O)C(=O)N[C@H]1CSSC[C@@H](C(=O)N2CCC[C@H]2C(=O)N[C@@H](Cc2ccccc2)C(=O)N[C@@H](CC(=O)O)C(N)=O)NC(=O)[C@H](CC(N)=O)NC(=O)[C@H](Cc2c[nH]c3ccccc23)NC(=O)[C@H](CCC(N)=O)NC(=O)[C@H](CC(C)C)NC(=O)[C@H](C)NC1=O
B5: Cpd #12 (peptide)
peptide: Ac-MSDCW[dA]QWNCPFD-NH2
modifications: disulfide 4-10
SMILES: CSCC[C@H](NC(C)=O)C(=O)N[C@@H](CO)C(=O)N[C@@H](CC(=O)O)C(=O)N[C@H]1CSSC[C@@H](C(=O)N2CCC[C@H]2C(=O)N[C@@H](Cc2ccccc2)C(=O)N[C@@H](CC(=O)O)C(N)=O)NC(=O)[C@H](CC(N)=O)NC(=O)[C@H](Cc2c[nH]c3ccccc23)NC(=O)[C@H](CCC(N)=O)NC(=O)[C@@H](C)NC(=O)[C@H](Cc2c[nH]c3ccccc23)NC1=O
B6: Cpd #10 (peptide)
peptide: Ac-MS[dA]CWLQWNCPFD-NH2
modifications: disulfide 4-10
SMILES: CSCC[C@H](NC(C)=O)C(=O)N[C@@H](CO)C(=O)N[C@H](C)C(=O)N[C@H]1CSSC[C@@H](C(=O)N2CCC[C@H]2C(=O)N[C@@H](Cc2ccccc2)C(=O)N[C@@H](CC(=O)O)C(N)=O)NC(=O)[C@H](CC(N)=O)NC(=O)[C@H](Cc2c[nH]c3ccccc23)NC(=O)[C@H](CCC(N)=O)NC(=O)[C@H](CC(C)C)NC(=O)[C@H](Cc2c[nH]c3ccccc23)NC1=O
B7: Cpd #19 (peptide)
peptide: Ac-ASDCWLQWNCPFD-NH2
modifications: disulfide 4-10
SMILES: CC(=O)N[C@@H](C)C(=O)N[C@@H](CO)C(=O)N[C@@H](CC(=O)O)C(=O)N[C@H]1CSSC[C@@H](C(=O)N2CCC[C@H]2C(=O)N[C@@H](Cc2ccccc2)C(=O)N[C@@H](CC(=O)O)C(N)=O)NC(=O)[C@H](CC(N)=O)NC(=O)[C@H](Cc2c[nH]c3ccccc23)NC(=O)[C@H](CCC(N)=O)NC(=O)[C@H](CC(C)C)NC(=O)[C@H](Cc2c[nH]c3ccccc23)NC1=O

Numbered stars: 1 amine (or outer) side, 2 acyl side, 3 side chain; on linkers, the order of the positions; unused ones are H or OH. Bridge positions count the residues as written; N and C are the ends. Square brackets hold non-standard residues; d marks the D form. Peptide text beside a SMILES is read from it. * marks the point of attachment. Ala(piperidin-4-yl) = O=C([C@H](CC1CCN([*:3])CC1)N[*:1])[*:2]; DOTA = O=C(O)CN1CCN(CC(=O)O)CCN(CC(=O)*)CCN(CC(=O)O)CC1; Phe(4-CH2NH2) = NCc1ccc(C[C@H](N)C(=O)O)cc1; 1Nal = N[C@@H](Cc1cccc2ccccc12)C(=O)O; 2Nal = N[C@@H](Cc1ccc2ccccc2c1)C(=O)O; tBuAla = CC(C)(C)C[C@H](N)C(=O)O; dAllylGly = C=CC[C@@H](N)C(=O)O; AllylGly = C=CC[C@H](N)C(=O)O; αMeP = C[C@@]1(C(=O)O)CCCN1 Bounds are passed on as bounds.

For one experiment, the target named is T1, Biotinylated human DLL3. The experiment in a line: SPR, biotin-hDLL3 on SA chip.
Conditions: not given
For orientation: Surface plasmon resonance follows binding to a sensor surface in real time, without labels.
By Kd is commonly meant the concentration at which binding is half-saturated. Turning to Ac-[dA]SDCWLQWNCPFD-NH2 (disulfide 4-10) [Cpd #8], the dissociation constant (Kd) worked out at 8.5 nM.

As to B1, the Kd was found to be 4.9 nM.

The molecule B2 came in with a dissociation constant (Kd) of 80 nM.

B3 had a Kd of 35.1 nM.

Turning to B4, the binding result is “no binding”.

Molecule B5 yielded a Kd of 63 nM.

On to B6, for which binding was characterised by a dissociation constant (Kd) of 116 nM.

Consider B7, for which the Kd was found to be 21 nM.

The target of the next experiment is T2, human DLL3. Kind of experiment: Affinity determination by Surface Plasmon Resonance (SPR), Biacore, 1:1 binding model. The following applies: biotinylated human DLL3 on streptavidin chip, 25° C.; NB = nonbinding. A digest of the protocol:
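SPR with biotinylated human DLL3 captured on a streptavidin chip, with a reference surface subtracted. Samples were injected at several concentrations at 100 μL/min in phosphate buffer with 137 mM NaCl, 2.7 mM KCl, 0.05% P20 and 2% DMSO. Kinetic and affinity constants came from a 1:1 binding fit.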
The molecule `CC(=O)N[C@@H](CC1CCNCC1)C(=O)N[C@@H](CO)C(=O)N[C@@H](CC(=O)O)C(=O)N[C@@H]1C/C=C/C[C@@H](C(=O)N2CCC[C@@]2(C)C(=O)N[C@@H](Cc2ccccc2)C(=O)N[C@@H](CC(=O)O)C(N)=O)NC(=O)[C@H](CC(N)=O)NC(=O)[C@H](Cc2ccc3ccccc3c2)NC(=O)[C@H](Cc2ccc(CNC(=O)CN3CCN(CC(=O)O)CCN(CC(=O)O)CCN(CC(=O)O)CC3)cc2)NC(=O)[C@H](CC(C)(C)C)NC(=O)[C@H](Cc2cccc3ccccc23)NC1=O` [compound 210, Ac-[3-(4-piperidinyl)-Ala]-S-D-D-AllyG(4)-(1Nal)-(t-Bu-Ala)-[PAF(DOTA)]-(2Nal)-N-AllyG(4)-(aMe-P)-F-D-CONH2] (Ac-[Ala(piperidin-4-yl)]SD[dAllylGly][1Nal][tBuAla][Phe(4-CH2NH2)](DOTA)[2Nal]N[AllylGly][αMeP]FD-NH2; staple (E) 4-10) showed a Kd of over 100 nM.

`CC(=O)N[C@@H](CC1CCNCC1)C(=O)N[C@@H](CO)C(=O)N[C@@H](CC(=O)O)C(=O)N[C@H]1C/C=C\C[C@H](C(=O)N2CCC[C@@]2(C)C(=O)N[C@@H](Cc2ccccc2)C(=O)N[C@@H](CC(=O)O)C(N)=O)NC(=O)[C@H](CC(N)=O)NC(=O)[C@H](Cc2ccc3ccccc3c2)NC(=O)[C@H](Cc2ccc(CNC(=O)CN3CCN(CC(=O)O)CCN(CC(=O)O)CCN(CC(=O)O)CC3)cc2)NC(=O)[C@H](CC(C)(C)C)NC(=O)[C@H](Cc2cccc3ccccc23)NC1=O` [compound 211, Ac-[3-(4-piperidinyl)-Ala]-S-D-AllyG(4)-(1Nal)-(t-Bu-Ala)-[PAF(DOTA)]-(2Nal)-N-D-AllyG(4)-(aMe-P)-F-D-CONH2] (Ac-[Ala(piperidin-4-yl)]SD[AllylGly][1Nal][tBuAla][Phe(4-CH2NH2)](DOTA)[2Nal]N[dAllylGly][αMeP]FD-NH2; staple (Z) 4-10) came in with a Kd of over 100 nM.

The molecule `CC(=O)N[C@@H](CC1CCNCC1)C(=O)N[C@@H](CO)C(=O)N[C@@H](CC(=O)O)C(=O)N[C@@H]1C/C=C/C[C@H](C(=O)N2CCC[C@@]2(C)C(=O)N[C@@H](Cc2ccccc2)C(=O)N[C@@H](CC(=O)O)C(N)=O)NC(=O)[C@H](CC(N)=O)NC(=O)[C@H](Cc2ccc3ccccc3c2)NC(=O)[C@H](Cc2ccc(CNC(=O)CN3CCN(CC(=O)O)CCN(CC(=O)O)CCN(CC(=O)O)CC3)cc2)NC(=O)[C@H](CC(C)(C)C)NC(=O)[C@H](Cc2cccc3ccccc23)NC1=O` [compound 212, Ac-[3-(4-piperidinyl)-Ala]-S-D-D-AllyG(4)-(1Nal)-(t-Bu-Ala)-[PAF(DOTA)]-(2Nal)-N-D-AllyG(4)-(aMe-P)-F-D-CONH2] (Ac-[Ala(piperidin-4-yl)]SD[dAllylGly][1Nal][tBuAla][Phe(4-CH2NH2)](DOTA)[2Nal]N[dAllylGly][αMeP]FD-NH2; staple (E) 4-10) returned an equilibrium dissociation constant (Kd) of over 100 nM.

`CC(=O)N[C@@H](CO)C(=O)N[C@@](C)(CC(=O)O)C(=O)N[C@H]1CCCC[C@@H](C(=O)N2CCC[C@@]2(C)C(=O)N[C@@H](Cc2ccccc2)C(=O)N[C@@H](CC(=O)O)C(N)=O)NC(=O)[C@H](CC(N)=O)NC(=O)[C@H](Cc2ccc3ccccc3c2)NC(=O)[C@H](Cc2ccc(CNC(=O)CN3CCN(CC(=O)O)CCN(CC(=O)O)CCN(CC(=O)O)CC3)cc2)NC(=O)[C@H](CC(C)(C)C)NC(=O)[C@H](Cc2cccc3ccccc23)NC1=O` [compound 213, Ac-S-(aMe-Asp)-AllyG(4)*-(1Nal)-(t-Bu-Ala)-[PAF(DOTA)]-(2Nal)-N-AllyG(4)*-(aMe-P)-F-D-CONH2] came in with a dissociation constant Kd of 0.419 nM.

Consider “Ac-(Chg)-S-D-C(3)-(1Nal)-(THPG)-Q-W-N-C(3)-(aMe-P)-F-D-D-Lys(DOTA)-CONH2 [compound 128]”, for which the “SPR KD (nM)” value is given as “slow kon”.
